Assays:
[1] = target: T1, apolipoprotein C-I (mouse), P34928; assay: ratio of MS intensity on L-form beads to that on D-form (C10-KR8d) beads
T1 chain: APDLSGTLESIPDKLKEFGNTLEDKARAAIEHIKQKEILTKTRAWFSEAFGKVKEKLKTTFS

[2] = target: T2, apolipoprotein A-I (mouse), Q00623; assay: as above
T2 chain: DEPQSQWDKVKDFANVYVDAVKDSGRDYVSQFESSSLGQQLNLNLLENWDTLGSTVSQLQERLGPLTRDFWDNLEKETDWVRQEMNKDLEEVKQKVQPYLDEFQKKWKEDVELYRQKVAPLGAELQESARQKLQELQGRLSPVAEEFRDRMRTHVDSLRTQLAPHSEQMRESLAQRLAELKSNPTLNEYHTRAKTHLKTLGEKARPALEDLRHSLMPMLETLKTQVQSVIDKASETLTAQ

[3] = target: T3, apolipoprotein A-IV (mouse), P06728; assay: as above
T3 chain: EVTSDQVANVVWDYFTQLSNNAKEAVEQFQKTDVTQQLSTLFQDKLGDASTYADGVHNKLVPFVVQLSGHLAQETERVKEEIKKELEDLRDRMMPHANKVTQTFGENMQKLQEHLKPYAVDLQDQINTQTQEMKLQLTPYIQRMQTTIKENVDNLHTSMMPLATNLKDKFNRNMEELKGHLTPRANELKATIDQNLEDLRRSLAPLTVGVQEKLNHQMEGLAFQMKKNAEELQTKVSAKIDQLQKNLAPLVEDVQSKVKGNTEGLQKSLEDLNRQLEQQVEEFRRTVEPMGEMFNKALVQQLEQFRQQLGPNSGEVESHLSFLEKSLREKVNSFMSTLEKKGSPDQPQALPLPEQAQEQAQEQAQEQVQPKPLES

[4] = target: serum albumin (mouse), P07724; assay: as above
serum albumin (mouse), P07724, sequence (P07724 25-608 limits assumed): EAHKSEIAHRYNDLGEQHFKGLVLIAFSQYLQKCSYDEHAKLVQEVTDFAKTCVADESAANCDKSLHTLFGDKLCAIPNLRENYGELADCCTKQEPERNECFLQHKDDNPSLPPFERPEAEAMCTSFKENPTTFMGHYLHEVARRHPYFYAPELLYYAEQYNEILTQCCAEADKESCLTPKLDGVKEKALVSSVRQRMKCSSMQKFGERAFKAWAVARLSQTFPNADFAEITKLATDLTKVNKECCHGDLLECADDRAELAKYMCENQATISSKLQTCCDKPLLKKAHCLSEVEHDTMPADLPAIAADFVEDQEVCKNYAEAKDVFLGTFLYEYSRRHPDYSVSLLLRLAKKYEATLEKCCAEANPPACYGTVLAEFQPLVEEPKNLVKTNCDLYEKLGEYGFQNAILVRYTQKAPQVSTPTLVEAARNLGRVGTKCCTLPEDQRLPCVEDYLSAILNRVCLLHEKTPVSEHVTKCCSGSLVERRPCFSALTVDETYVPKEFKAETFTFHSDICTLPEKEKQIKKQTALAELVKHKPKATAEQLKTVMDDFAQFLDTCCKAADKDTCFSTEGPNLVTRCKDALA

[5] = target: T1, apolipoprotein C-I (mouse), P34928; assay: peptide on Dynabeads, 5% mouse plasma, LC-MS/MS
[6] = target: T2, apolipoprotein A-I (mouse), Q00623; assay: peptide on Dynabeads, 5% mouse plasma, LC-MS/MS
[7] = target: T3, apolipoprotein A-IV (mouse), P06728; assay: peptide on Dynabeads, 5% mouse plasma, LC-MS/MS
[8] = target: serum albumin (mouse), P07724; assay: peptide on Dynabeads, 5% mouse plasma, LC-MS/MS

CKRIWQRIK (modifications not checked)
L/D Ratio [1]: 2.08 | L/D Ratio [2]: 3.54 | L/D Ratio [3]: 2.89 | L/D Ratio [4]: 2.28 | intensity (mass spectrometry) [5]: 4.35e+08 | intensity (mass spectrometry) [6]: 4.29e+09 | intensity (mass spectrometry) [7]: 3.21e+08 | intensity (mass spectrometry) [8]: 3.72e+10

Reference: patent US20240294572A1, “Antimicrobial Peptides” (priority 2021, published 2024)
